# From article PMC6561178, “Caulobacter crescentus Hfq structure reveals a conserved mechanism of RNA annealing regulation”
# T1: Cc78 (Caulobacter crescentus NA1000, UniProt B8GW92 1-78, del79-82)
# T1 sequence: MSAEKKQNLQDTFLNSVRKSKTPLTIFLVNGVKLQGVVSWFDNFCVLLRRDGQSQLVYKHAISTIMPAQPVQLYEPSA
# Experiments:
# [1] = target: Caulobacter crescentus Hfq (Caulobacter crescentus); experiment: crystal structure; hanging-drop vapor diffusion; Cc Hfq at 7 mg/mL; 0.2 M sodium thiocyanate, 17% PEG 3350; 2.15 Å; four hexamers in the asymmetric unit, space group P4_(3)
# Ec Hfq (Hfq102) [2] = target: T2, Ec Hfq (Hfq102) (Escherichia coli, UniProt P0A6X3 1-102); experiment: EMSA; Hill n 4.4; EMSA: 34 mM Tris-HCl pH 7.5, 50 mM NaCl, 50 mM KCl, 50 mM NH4Cl, 11.4 mM EDTA, 12% glycerol, 30 C, 30 min, ~1 nM 32P-RNA, Kd in Hfq6; anisotropy: 10 mM Tris-HCl; conditions: protein: recombinant; tags: untagged; chain copies: 6; label: 32P
# Cc78 [3] = target: T1, Cc78; experiment: EMSA; Hill n 1.2; EMSA: 34 mM Tris-HCl pH 7.5, 50 mM NaCl, 50 mM KCl, 50 mM NH4Cl, 11.4 mM EDTA, 12% glycerol, 30 C, 30 min, ~1 nM 32P-RNA, Kd in Hfq6; anisotropy: 10 mM Tris-HCl; conditions: protein: recombinant; tags: untagged after self-cleaved intein; chain copies: 6; label: 32P; stem-loops
# EcCc Hfq [4] = target: T3, EcCc Hfq (Escherichia coli / Caulobacter …, UniProt P0A6X3 1-67+B8GW92:71-82, internal_change); experiment: EMSA; Hill n 1.8; EMSA: 34 mM Tris-HCl pH 7.5, 50 mM NaCl, 50 mM KCl, 50 mM NH4Cl, 11.4 mM EDTA, 12% glycerol, 30 C, 30 min, ~1 nM 32P-RNA, Kd in Hfq6; anisotropy: 10 mM Tris-HCl; conditions: protein: recombinant; tags: untagged; chain copies: 6; label: 32P; stem-loops
# Ec65 [5] = target: T4, Ec65 (Escherichia coli, UniProt P0A6X3 1-65, del66-102); experiment: EMSA; Hill n 1.7; EMSA: 34 mM Tris-HCl pH 7.5, 50 mM NaCl, 50 mM KCl, 50 mM NH4Cl, 11.4 mM EDTA, 12% glycerol, 30 C, 30 min, ~1 nM 32P-RNA, Kd in Hfq6; anisotropy: 10 mM Tris-HCl; conditions: protein: recombinant; tags: untagged; chain copies: 6; label: 32P; stem-loops
# Ec Hfq (Hfq102) [6] = target: T2, Ec Hfq (Hfq102); experiment: EMSA; Hill n 1; Tris-glycine gel; EMSA: 34 mM Tris-HCl pH 7.5, 50 mM NaCl, 50 mM KCl, 50 mM NH4Cl, 11.4 mM EDTA, 12% glycerol, 30 C, 30 min, ~1 nM 32P-RNA, Kd in Hfq6; anisotropy: 10 mM Tris-HCl; conditions: protein: recombinant; tags: untagged; chain copies: 6; label: 32P; stem-loops
# Cc78 [7] = target: T1, Cc78; experiment: EMSA; Hill n 5.5; EMSA: 34 mM Tris-HCl pH 7.5, 50 mM NaCl, 50 mM KCl, 50 mM NH4Cl, 11.4 mM EDTA, 12% glycerol, 30 C, 30 min, ~1 nM 32P-RNA, Kd in Hfq6; anisotropy: 10 mM Tris-HCl; conditions: protein: recombinant; tags: untagged after self-cleaved intein; chain copies: 6; label: 32P; stem-loops
# Ec65 [8] = target: T4, Ec65; experiment: EMSA; Hill n 3.1; EMSA: 34 mM Tris-HCl pH 7.5, 50 mM NaCl, 50 mM KCl, 50 mM NH4Cl, 11.4 mM EDTA, 12% glycerol, 30 C, 30 min, ~1 nM 32P-RNA, Kd in Hfq6; anisotropy: 10 mM Tris-HCl; conditions: protein: recombinant; tags: untagged; chain copies: 6; label: 32P; stem-loops
# EcCc Hfq [9] = target: T3, EcCc Hfq; experiment: EMSA; Hill n 4.5; EMSA: 34 mM Tris-HCl pH 7.5, 50 mM NaCl, 50 mM KCl, 50 mM NH4Cl, 11.4 mM EDTA, 12% glycerol, 30 C, 30 min, ~1 nM 32P-RNA, Kd in Hfq6; anisotropy: 10 mM Tris-HCl; conditions: protein: recombinant; tags: untagged; chain copies: 6; label: 32P; stem-loops
# Ec Hfq (Hfq102) [10] = target: T2, Ec Hfq (Hfq102); experiment: EMSA; Hill n 4.1; EMSA: 34 mM Tris-HCl pH 7.5, 50 mM NaCl, 50 mM KCl, 50 mM NH4Cl, 11.4 mM EDTA, 12% glycerol, 30 C, 30 min, ~1 nM 32P-RNA, Kd in Hfq6; anisotropy: 10 mM Tris-HCl; conditions: protein: recombinant; tags: untagged; chain copies: 6; label: 32P; stem-loops
# EcCc Hfq [11] = target: T3, EcCc Hfq; experiment: EMSA; Hill n 8.7; EMSA: 34 mM Tris-HCl pH 7.5, 50 mM NaCl, 50 mM KCl, 50 mM NH4Cl, 11.4 mM EDTA, 12% glycerol, 30 C, 30 min, ~1 nM 32P-RNA, Kd in Hfq6; anisotropy: 10 mM Tris-HCl; conditions: protein: recombinant; tags: untagged; chain copies: 6; label: 32P; stem-loops
# Ec65 [12] = target: T4, Ec65; experiment: EMSA; Hill n 2.4; EMSA: 34 mM Tris-HCl pH 7.5, 50 mM NaCl, 50 mM KCl, 50 mM NH4Cl, 11.4 mM EDTA, 12% glycerol, 30 C, 30 min, ~1 nM 32P-RNA, Kd in Hfq6; anisotropy: 10 mM Tris-HCl; conditions: protein: recombinant; tags: untagged; chain copies: 6; label: 32P; stem-loops
# Cc78 [13] = target: T1, Cc78; experiment: EMSA; Hill n 2.5; EMSA: 34 mM Tris-HCl pH 7.5, 50 mM NaCl, 50 mM KCl, 50 mM NH4Cl, 11.4 mM EDTA, 12% glycerol, 30 C, 30 min, ~1 nM 32P-RNA, Kd in Hfq6; anisotropy: 10 mM Tris-HCl; conditions: protein: recombinant; tags: untagged after self-cleaved intein; chain copies: 6; label: 32P; stem-loops
# Ec Hfq (Hfq102) [14] = target: T2, Ec Hfq (Hfq102); experiment: EMSA; Hill n 11.9; EMSA: 34 mM Tris-HCl pH 7.5, 50 mM NaCl, 50 mM KCl, 50 mM NH4Cl, 11.4 mM EDTA, 12% glycerol, 30 C, 30 min, ~1 nM 32P-RNA, Kd in Hfq6; anisotropy: 10 mM Tris-HCl; conditions: protein: recombinant; tags: untagged; chain copies: 6; label: 32P; stem-loops
# Ec Hfq (Hfq102) [15] = target: T2, Ec Hfq (Hfq102); experiment: EMSA; Hill n 2.2; EMSA: 34 mM Tris-HCl pH 7.5, 50 mM NaCl, 50 mM KCl, 50 mM NH4Cl, 11.4 mM EDTA, 12% glycerol, 30 C, 30 min, ~1 nM 32P-RNA, Kd in Hfq6; anisotropy: 10 mM Tris-HCl; conditions: protein: recombinant; tags: untagged; chain copies: 6; label: 32P
# Ec Hfq (Hfq102) [16] = target: T2, Ec Hfq (Hfq102); experiment: EMSA; Hill n 10.1; EMSA: 34 mM Tris-HCl pH 7.5, 50 mM NaCl, 50 mM KCl, 50 mM NH4Cl, 11.4 mM EDTA, 12% glycerol, 30 C, 30 min, ~1 nM 32P-RNA, Kd in Hfq6; anisotropy: 10 mM Tris-HCl; conditions: protein: recombinant; tags: untagged; chain copies: 6; label: 32P; stem-loops
# Ec65 [17] = target: T4, Ec65; experiment: EMSA; Hill n 1.0; EMSA: 34 mM Tris-HCl pH 7.5, 50 mM NaCl, 50 mM KCl, 50 mM NH4Cl, 11.4 mM EDTA, 12% glycerol, 30 C, 30 min, ~1 nM 32P-RNA, Kd in Hfq6; anisotropy: 10 mM Tris-HCl; conditions: protein: recombinant; tags: untagged; chain copies: 6; label: 32P; stem-loops
# EcCc Hfq [18] = target: T3, EcCc Hfq; experiment: EMSA; Hill n 30.2; EMSA: 34 mM Tris-HCl pH 7.5, 50 mM NaCl, 50 mM KCl, 50 mM NH4Cl, 11.4 mM EDTA, 12% glycerol, 30 C, 30 min, ~1 nM 32P-RNA, Kd in Hfq6; anisotropy: 10 mM Tris-HCl; conditions: protein: recombinant; tags: untagged; chain copies: 6; label: 32P; stem-loops
# Cc78 [19] = target: T1, Cc78; experiment: EMSA; Hill n 3.5; EMSA: 34 mM Tris-HCl pH 7.5, 50 mM NaCl, 50 mM KCl, 50 mM NH4Cl, 11.4 mM EDTA, 12% glycerol, 30 C, 30 min, ~1 nM 32P-RNA, Kd in Hfq6; anisotropy: 10 mM Tris-HCl; conditions: protein: recombinant; tags: untagged after self-cleaved intein; chain copies: 6; label: 32P; stem-loops
# Cc78 [20] = target: T1, Cc78; experiment: EMSA; Hill n 1.6; EMSA: 34 mM Tris-HCl pH 7.5, 50 mM NaCl, 50 mM KCl, 50 mM NH4Cl, 11.4 mM EDTA, 12% glycerol, 30 C, 30 min, ~1 nM 32P-RNA, Kd in Hfq6; anisotropy: 10 mM Tris-HCl; conditions: protein: recombinant; tags: untagged after self-cleaved intein; chain copies: 6; label: 32P; folded
# EcCc Hfq [21] = target: T3, EcCc Hfq; experiment: EMSA; Hill n 1.0; EMSA: 34 mM Tris-HCl pH 7.5, 50 mM NaCl, 50 mM KCl, 50 mM NH4Cl, 11.4 mM EDTA, 12% glycerol, 30 C, 30 min, ~1 nM 32P-RNA, Kd in Hfq6; anisotropy: 10 mM Tris-HCl; conditions: protein: recombinant; tags: untagged; chain copies: 6; label: 32P; folded
# Ec65 [22] = target: T4, Ec65; experiment: EMSA; Hill n 3.7; EMSA: 34 mM Tris-HCl pH 7.5, 50 mM NaCl, 50 mM KCl, 50 mM NH4Cl, 11.4 mM EDTA, 12% glycerol, 30 C, 30 min, ~1 nM 32P-RNA, Kd in Hfq6; anisotropy: 10 mM Tris-HCl; conditions: protein: recombinant; tags: untagged; chain copies: 6; label: 32P; folded
# Ec Hfq (Hfq102) [23] = target: T2, Ec Hfq (Hfq102); experiment: EMSA; Hill n 13; EMSA: 34 mM Tris-HCl pH 7.5, 50 mM NaCl, 50 mM KCl, 50 mM NH4Cl, 11.4 mM EDTA, 12% glycerol, 30 C, 30 min, ~1 nM 32P-RNA, Kd in Hfq6; anisotropy: 10 mM Tris-HCl; conditions: protein: recombinant; tags: untagged; chain copies: 6; label: 32P; folded
# Chain of Caulobacter crescentus Hfq (natural protein) (B8GW92 whole entry): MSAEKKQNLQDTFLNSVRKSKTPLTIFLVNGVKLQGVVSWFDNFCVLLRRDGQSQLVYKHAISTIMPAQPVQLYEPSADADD
molecule,measurement,setting,value
Caulobacter crescentus Hfq (natural protein),stoichiometry N,[1],6
hns (structured_RNA) RNA: GAACAAACCACCCCAAUAUAAGUUUGAGAUUACUACAAUGAGCGAAGCACUUAAAAUUCUGAACAACAUCCGUACUCUUCGUGCGCAGGCAAGAGAAUGUACACUUGAAACGCUGGAAGAA,Kd,Ec Hfq (Hfq102) [2],19.7 ± 0.4 nM
R133 (structured_RNA) RNA: GGAGCCCUUUCGGGCGUUUCCUCCCAAUGACUCGGCCGCCCUCUUCUCCUGGAGGGCGGCCGUUCUUUU,Kd,Cc78 [3],242 ± 17 nM
same,Kd,EcCc Hfq [4],232 ± 46 nM
same,Kd,Ec65 [5],21.6 ± 1.3 nM
same,Kd,Ec Hfq (Hfq102) [6],14.7 ± 1.3 nM
RybB (structured_RNA) RNA: GGCCACUGCUUUUCUUUGAUGUCCCCAUUUUGUGGAGCCCAUCAACCCCGCCAUUUCGGUUCAAGGUUGAUGGGUUUUUU,Kd,Cc78 [7],68.1 ± 1.9 nM
same,Kd,Ec65 [8],27.1 ± 0.9 nM
same,Kd,EcCc Hfq [9],37.3 ± 6.2 nM
same,Kd,Ec Hfq (Hfq102) [10],21.5 ± 2 nM
DsrA (structured_RNA) RNA: GGGAACACAUCAGAUUUCCUGGUGUAACGAAUUUUUUAAGUGCUUCUUGCUUAAGCAAGUUUCAUCCCGACCCCCUCAGGGUCGGGAUUUUUUU,Kd,EcCc Hfq [11],42.5 ± 1 nM
same,Kd,Ec65 [12],12.6 ± 1.9 nM
same,Kd,Cc78 [13],62.2 ± 4.4 nM
same,Kd,Ec Hfq (Hfq102) [14],21.1 ± 0.3 nM
cfa (structured_RNA) RNA: GGUUGUUAAAGCUACGAUAAAUAUUAUGUUUUUACGGGGACAGGAUCGUUCCCGACUCACUAUGGAUAGUCAUUUCGGCAAGGGUUCCUCCUUUCCCUCUGUUCUACGUCGGAUUAUAGACUCGCGGUUUUUUCUGCGAGAUUUCUCACAAAGCCCAAAAAGCGUCUACGCUGUUUUAAGGUUCUGAUCACCGACCAGUGAUGGAGAAACUAUGAGUUCAUCGUGUAUAGAAGAAGUCAGUGUACCGGAUGACAAC,Kd,Ec Hfq (Hfq102) [15],19 ± 0.5 nM
ChiX (structured_RNA) RNA: GGGACACCGUCGCUUAAAGUGACGGCAUAAUAAUAAAAAAAUGAAAUUCCUCUUUGACGGGCCAAUAGCGAUAUUGGCCAUUUUUUU,Kd,Ec Hfq (Hfq102) [16],20.3 ± 0.4 nM
same,Kd,Ec65 [17],95 ± 27 nM
same,Kd,EcCc Hfq [18],35.8 ± 0.4 nM
same,Kd,Cc78 [19],32.4 ± 0.4 nM
RydC (structured_RNA) RNA: GGCUUCCGAUGUAGACCCGUAUUCUUCGCCUGUACCACGGGUCGGUUUUAGUACAGGCGUUUUCUU,Kd,Cc78 [20],167 ± 11 nM
same,Kd,EcCc Hfq [21],237 ± 34 nM
same,Kd,Ec65 [22],12.3 ± 0.4 nM
same,Kd,Ec Hfq (Hfq102) [23],22.1 ± 0.2 nM
